Target: the molecule itself
Assay: cryo-EM structure

B1: full-length wild-type rat P2X7 receptor (receptor, UniProt Q64663 1-595, looked up)
chain: MPACCSWNDVFQYETNKVTRIQSVNYGTIKWILHMTVFSYVSFALMSDKLYQRKEPLISSVHTKVKGVAEVTENVTEGGVTKLVHGIFDTADYTLPLQGNSFFVMTNYLKSEGQEQKLCPEYPSRGKQCHSDQGCIKGWMDPQSKGIQTGRCIPYDQKRKTCEIFAWCPAEEGKEAPRPALLRSAENFTVLIKNNIDFPGHNYTTRNILPGMNISCTFHKTWNPQCPIFRLGDIFQEIGENFTEVAVQGGIMGIEIYWDCNLDSWSHRCQPKYSFRRLDDKYTNESLFPGYNFRYAKYYKENGMEKRTLIKAFGVRFDILVFGTGGKFDIIQLVVYIGSTLSYFGLATVCIDLIINTYASTCCRSRVYPSCKCCEPCAVNEYYYRKKCEPIVEPKPTLKYVSFVDEPHIWMVDQQLLGKSLQDVKGQEVPRPQTDFLELSRLSLSLHHSPPIPGQPEEMQLLQIEAVPRSRDSPDWCQCGNCLPSQLPENRRALEELCCRRKPGQCITTSELFSKIVLSREALQLLLLYQEPLLALEGEAINSKLRHCAYRSYATWRFVSQDMADFAILPSCCRWKIRKEFPKTQGQYSGFKYPY
modifications: limited glycosylation and acylation included in the models (sites not given)
binding result: binds

From publication PMC11303814 (Nature Communications, 2024)
